Test results taken from the supplement of paper PMC7125110.
± gives the standard error. For some of these results: This sample holds only a part of the variants without activity.

B1: glmS ribozyme (parent)
chain: AUAAAAGCGCCAGAACUACAGAAAUGUAGUUGACGAGGAGGAGGUUUAUCGAAUUUUCGGCGGAUGCCUCCAAA

Key:
Settings in all cases: with glucosamine-6-phosphate
[1] = variants of: B1; experiment: kcat; higher = faster cleavage; RNA array
Procedure, shortened: (§1)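 Barcoded ribozyme variants on sequenced MiSeq chips were transcribed in situ by E. coli RNA polymerase and followed at 37 °C through a hybridised Cy3 probe. Glucosamine-6-phosphate at 40 μM to 10 mM in HEPES/KCl/Mg(OAc)2 buffer was flowed in, and tiles were imaged over ~14 h. Signals were normalised to baseline and to non-cleaving reference variants, and per-tile medians were fit to one- or two-exponential decays to give kobs. Weighted Michaelis–Menten fits across concentrations gave kcat and KM.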

[2] = variants of: B1; experiment: KM; higher = weaker cofactor use; RNA array
Procedure, shortened: as §1

[3] = variants of: B1; experiment: self-cleavage kobs at 160 uM GlcN6P; higher = faster cleavage; RNA array
Procedure, shortened: as §1

[4] = variants of: B1; experiment: self-cleavage kobs at 640 uM GlcN6P; higher = faster cleavage; RNA array
Procedure, shortened: as §1

[5] = variants of: B1; experiment: self-cleavage kobs at 2500 uM GlcN6P; higher = faster cleavage; RNA array
Procedure, shortened: as §1

[6] = variants of: B1; experiment: self-cleavage kobs at 10000 uM GlcN6P; higher = faster cleavage; RNA array
Procedure, shortened: as §1

[7] = variants of: B1; experiment: self-cleavage kobs at 40 uM GlcN6P; higher = faster cleavage; RNA array
Procedure, shortened: as §1

AUAAAAGCGCCAAAACUACAGAAAUGUAGUUGACGAGGAGGAGGAUUAUCGAAUUUUCGGCGGAUGCCUCCAAA
kcat [1]: 0.00257 ± 0.00041 s⁻¹ | KM [2]: 6.91 ± 1.4 mM | self-cleavage kobs at 160 uM GlcN6P [3]: 5.26e-05 ± 9.7e-06 s⁻¹ | self-cleavage kobs at 640 uM GlcN6P [4]: 0.000237 ± 3.3e-05 s⁻¹ | self-cleavage kobs at 2500 uM GlcN6P [5]: 0.000649 ± 0.00012 s⁻¹ | self-cleavage kobs at 10000 uM GlcN6P [6]: 0.00152 ± 0.00022 s⁻¹

AUAAAAGCGCCAAAACUACAGAAAUGUAGUUGACGAGGAGGAGGUUUAUCGAAUUUUCGGCGGAUGCCCCCAAA
kcat [1]: 0.000255 ± 8.6e-05 s⁻¹ | self-cleavage kobs at 2500 uM GlcN6P [5]: 0.000132 ± 2.8e-05 s⁻¹ | self-cleavage kobs at 10000 uM GlcN6P [6]: 0.000179 ± 4.5e-05 s⁻¹

AUAAAAGCGCCAAAACUACAGAAAUGUAGUUGACGAGGAGGAGGUUUAUCGAAUUUUCGGCGGAUGCCACCAAA
kcat [1]: 4.03e-05 ± 1.6e-05 s⁻¹ | self-cleavage kobs at 2500 uM GlcN6P [5]: 6.18e-05 ± 1.2e-05 s⁻¹

AUAAAAGCGCCAAAACUACAGAAAUGUAGUUGACGAGGAGGAGGUUUAUCGAAUUUACGGCGGAUGCCUCCAAA
kcat [1]: 5.51e-05 ± 4.2e-06 s⁻¹ | KM [2]: 0.37 ± 0.13 mM | self-cleavage kobs at 2500 uM GlcN6P [5]: 4.76e-05 ± 1.5e-05 s⁻¹

AUAAAAGCGCCAAAACUACAGAAAUGUACUUGACGAGGAGGAGGUUUAUCGAAUUUUCGGCGGAUGCCUCCAAA
kcat [1]: 0.00011 ± 4.9e-06 s⁻¹ | KM [2]: 1.99 ± 0.24 mM | self-cleavage kobs at 2500 uM GlcN6P [5]: 5.98e-05 ± 1.3e-05 s⁻¹ | self-cleavage kobs at 10000 uM GlcN6P [6]: 9.3e-05 ± 1.7e-05 s⁻¹

AUAAAAGCGCCAAAACUACAGAAAUGUAGUAGACGAGGAGGAGGUUUAUCGAAUUUUCGGCGGAUGCCUCCAAA
kcat [1]: 0.00146 ± 4.2e-05 s⁻¹ | KM [2]: 9.8 ± 0.41 mM | self-cleavage kobs at 640 uM GlcN6P [4]: 9.06e-05 ± 1.9e-05 s⁻¹ | self-cleavage kobs at 2500 uM GlcN6P [5]: 0.000292 ± 6.9e-05 s⁻¹ | self-cleavage kobs at 10000 uM GlcN6P [6]: 0.00074 ± 0.0001 s⁻¹

AUAAAAGCGCCAAAACUACAGAAAUGUAGUCGACGAGGAGGAGGUUUAUCGAAUUUUCGGCGGAUGCCUCCAAA
kcat [1]: 0.00123 ± 0.00012 s⁻¹ | KM [2]: 4.56 ± 0.74 mM | self-cleavage kobs at 160 uM GlcN6P [3]: 3.44e-05 ± 1.2e-05 s⁻¹ | self-cleavage kobs at 640 uM GlcN6P [4]: 0.000169 ± 3.3e-05 s⁻¹ | self-cleavage kobs at 2500 uM GlcN6P [5]: 0.000441 ± 6.9e-05 s⁻¹ | self-cleavage kobs at 10000 uM GlcN6P [6]: 0.00084 ± 0.00011 s⁻¹

AUAAAAGCGCCAAAACUACAGAAAUGUAGUUGACGAGGAGGAGGUUUAUCGAAUUUUCGGCGGAUGCCUCGAAA
kcat [1]: 5.85e-05 ± 4.1e-06 s⁻¹ | self-cleavage kobs at 640 uM GlcN6P [4]: 5.42e-05 ± 1.3e-05 s⁻¹ | self-cleavage kobs at 2500 uM GlcN6P [5]: 5.71e-05 ± 9.7e-06 s⁻¹ | self-cleavage kobs at 10000 uM GlcN6P [6]: 5.48e-05 ± 7e-06 s⁻¹

AUAAAAGCGCCAAAACUACAGAAAUGUAGUUGACGAGGAGGAGGUUUAUCGAACUUUCGGCGGAUGCCUCCAAA
kcat [1]: 0.000629 ± 0.00013 s⁻¹ | KM [2]: 2.49 ± 0.92 mM | self-cleavage kobs at 160 uM GlcN6P [3]: 2.7e-05 ± 1e-05 s⁻¹ | self-cleavage kobs at 640 uM GlcN6P [4]: 0.000134 ± 2.4e-05 s⁻¹ | self-cleavage kobs at 2500 uM GlcN6P [5]: 0.000405 ± 6.2e-05 s⁻¹ | self-cleavage kobs at 10000 uM GlcN6P [6]: 0.000458 ± 7.1e-05 s⁻¹

AUAAAAGCGCCAAAACUACAGAAAUGUAGUUGACGAGGAGGAGGUUUAUCGAAUUUUCGUCGGAUGCCUCCAAA
kcat [1]: < 1e-05 s⁻¹ | self-cleavage kobs at 10000 uM GlcN6P [6]: < 1e-05 s⁻¹

AUAAAAGCGCCACAACUACAGAAAUGUAGUUGACGAGGAGGCGGUUUAUCGAAUUUUCGGCGGAUGCCUCCAAA
kcat [1]: < 1e-05 s⁻¹ | self-cleavage kobs at 40 uM GlcN6P [7]: < 1e-05 s⁻¹ | self-cleavage kobs at 10000 uM GlcN6P [6]: < 1e-05 s⁻¹

AUAAAAGCGCCAAAACUACAGAAAUGUAGUUGACGAGGAUGAGGUUUAUCGAAUUUUCGGCGGAUGCCUCCAAA
kcat [1]: 8.11e-05 ± 1e-05 s⁻¹ | KM [2]: 2.81 ± 0.99 mM | self-cleavage kobs at 40 uM GlcN6P [7]: < 1e-05 s⁻¹ | self-cleavage kobs at 2500 uM GlcN6P [5]: 4.21e-05 ± 8.5e-06 s⁻¹ | self-cleavage kobs at 10000 uM GlcN6P [6]: 6.21e-05 ± 8.8e-06 s⁻¹

AUAAAAGCGCCACAACUACAGAAAUGUAGUUGACGAGGGGGAGGUUUAUCGAAUUUUCGGCGGAUGCCUCCAAA
kcat [1]: 0.000183 ± 2.5e-05 s⁻¹ | KM [2]: 4.23 ± 1.3 mM | self-cleavage kobs at 2500 uM GlcN6P [5]: 7.1e-05 ± 1.4e-05 s⁻¹ | self-cleavage kobs at 10000 uM GlcN6P [6]: 0.000128 ± 2e-05 s⁻¹

AUAAAAGCGCCACAACUACAGAAAUGUAGUUGACGAGGUGGAGGUUUAUCGAAUUUUCGGCGGAUGCCUCCAAA
kcat [1]: 6.85e-05 ± 4.7e-06 s⁻¹ | KM [2]: 4.18 ± 0.82 mM | self-cleavage kobs at 40 uM GlcN6P [7]: < 1e-05 s⁻¹ | self-cleavage kobs at 2500 uM GlcN6P [5]: 2.64e-05 ± 1e-05 s⁻¹ | self-cleavage kobs at 10000 uM GlcN6P [6]: 4.82e-05 ± 7.1e-06 s⁻¹

AUAAAAGCGCCAAAACUACAGAAAUGUAGUUGACGAGGAGGAGGUUUAUCGAAUUUUCGGCGGAAGCCUCCAAA
kcat [1]: 0.000116 ± 3.9e-05 s⁻¹ | self-cleavage kobs at 40 uM GlcN6P [7]: < 1e-05 s⁻¹ | self-cleavage kobs at 2500 uM GlcN6P [5]: 2.1e-05 ± 9.1e-06 s⁻¹ | self-cleavage kobs at 10000 uM GlcN6P [6]: 5.81e-05 ± 8.7e-06 s⁻¹

AUAAAAGCGCCAAAACUACAGAAAUGUAGUUGACGAGGAGGAGGUUUAUCGAAUUUUCGGCGGAUGCCUGCAAA
kcat [1]: 3.04e-05 ± 1.3e-05 s⁻¹ | self-cleavage kobs at 640 uM GlcN6P [4]: 5.03e-05 ± 1.9e-05 s⁻¹ | self-cleavage kobs at 2500 uM GlcN6P [5]: 5.41e-05 ± 1.5e-05 s⁻¹

AUAAAAGCGCCAAAACUACAGAAAUGUAGAUGACGAGGAGGAGGUUUAUCGAAUUUUCGGCGGAUGCCUCCAAA
kcat [1]: 0.000292 ± 4.6e-05 s⁻¹ | KM [2]: 3.63 ± 0.96 mM | self-cleavage kobs at 160 uM GlcN6P [3]: < 1e-05 s⁻¹ | self-cleavage kobs at 640 uM GlcN6P [4]: 3.94e-05 ± 1.3e-05 s⁻¹ | self-cleavage kobs at 2500 uM GlcN6P [5]: 0.000128 ± 2.3e-05 s⁻¹ | self-cleavage kobs at 10000 uM GlcN6P [6]: 0.000202 ± 5.4e-05 s⁻¹

AUAAAAGCGCCAAAACUACAGAAAUGUAGCUGACGAGGAGGAGGUUUAUCGAAUUUUCGGCGGAUGCCUCCAAA
kcat [1]: 0.000676 ± 0.00014 s⁻¹ | KM [2]: 2.01 ± 0.83 mM | self-cleavage kobs at 640 uM GlcN6P [4]: 0.000158 ± 3.2e-05 s⁻¹ | self-cleavage kobs at 2500 uM GlcN6P [5]: 0.000511 ± 9.2e-05 s⁻¹ | self-cleavage kobs at 10000 uM GlcN6P [6]: 0.00051 ± 9.1e-05 s⁻¹
